This note sets out measurements from the RNAGym collection of RNA variant scans (doi:10.7554/elife.80360).

B1: HDV Ribozyme (parent)
chain: GGCCGGCAUGGUCCCAGCCUCCUCGCUGGCGCCGGCUGGGCAACAUUCCGAGGGGACCGUCCCCUCGGUAAUGGCGAAUGGGACCCA

This series covers variants of B1. The series can be described thus: self-cleavage, relative activity (ratio to wild type); higher = more cleavage; co-transcriptional.
On to GGCCGGCAUGUUCCCAGCCUCCUCGCUGGCGCCGGCUGGGCAACAUUCCGAGGGGACCGUCCCCUCGGUCAUGGCGAAUGGGACCCA, for which the self-cleavage stood at 0.0536.

Take GGCCGGCAUGUUCCCAGCCUCCUCGCUGGCGCCGGCUGGGCAACAUUCCGAGGGGACGGUCCCCUCGGUAAUGGCGAAUGGGACCCA: the self-cleavage turned out to be 0.44.

In the case of GGCCGGCAUGCUCCCAGCCUCCUCGCUGGCGCCGGCUGGGCAACAUUCCGAGGGGACCGUCCCCUCGGUAAUGGCGAACGGGACCCA, the self-cleavage was determined as 0.121.

In the case of GGCCGGCAUGUUCCCAGCCUCCUCGCUGGCGCCGGCUGGGCAACAUUCCGAGGGGACCGUCCCCUCGGUAAUGGCGAAUGGGUCCCA, the self-cleavage came out at 0.138.

As to GGCCGGCAUGUUCCCAGCCUCCUCGCUGGCGCCGGCUGGGCAACAUUCCGAGGGGACCGUCCCCUCGGUAAUGGCGAAUGGGGCCCA, the self-cleavage amounted to 0.175.

As to GGCCGGCAUGCUCCCAGCCUCCUCGCUGGCGCCGGCUGGGCAACAUUCCGAGGGGACCGUCCCCUCGGUAAUGGCGAAUGUGACCCA, the self-cleavage was 0.225.

Turning to GGCCGGCAUGCUCCCAGCCUCCUCGCUGGCGCCGACUGGGCAACAUUCCGAGGGGACCGUCCCCUCGGUAAUGGCGAAUGGGACCCA, the self-cleavage is 0.125.

For the variant GGCCGGCAUGCUCCCAGCCUCCUCGCUGGCGCCCGCUGGGCAACAUUCCGAGGGGACCGUCCCCUCGGUAAUGGCGAAUGGGACCCA, the self-cleavage is 0.0852.

GGCCGGCAUGUUCCCAGCCUCCUCGCUGGCGGCGGCUGGGCAACAUUCCGAGGGGACCGUCCCCUCGGUAAUGGCGAAUGGGACCCA: the self-cleavage came to 0.0767.

On to GGCCGGCAUGCUCCCAGCCUCCUCGCUGGCGCCGGCAGGGCAACAUUCCGAGGGGACCGUCCCCUCGGUAAUGGCGAAUGGGACCCA, for which the self-cleavage came to 0.

As to GGCCGGCAUGCUCCCAGCCUCCUCGCUGGCGCCGGCCGGGCAACAUUCCGAGGGGACCGUCCCCUCGGUAAUGGCGAAUGGGACCCA, the self-cleavage was 0.201.

GGCCGGCAUGUUCCCAGCCUCCUCGCUGGCGCCGGCUGGGCAACAUUCCGAGGGGACCGUCCCCUCGGUAAUGGCGAAUGGGACUCA: the self-cleavage is 0.767.

Regarding GGCCGGCAUGUUCCCAGCCUCCUCGCUGGCGCCGGCUGGGCAACAUUCCGCGGGGACCGUCCCCUCGGUAAUGGCGAAUGGGACCCA, the self-cleavage was 0.324.

As for GGCCGGCAUGUUCCCAGCCUCCUCGCUGGCGCCGGCUGGGCAACAUUCCGUGGGGACCGUCCCCUCGGUAAUGGCGAAUGGGACCCA, the self-cleavage came out at 0.506.

As for GGCCGGCAUGUUCCCAGCCUCCUCUCUGGCGCCGGCUGGGCAACAUUCCGAGGGGACCGUCCCCUCGGUAAUGGCGAAUGGGACCCA, the self-cleavage worked out at 0.0623.

With GGCCGGCAUGUUCCCAGCCUCCUCGCUGGCGCCGGCUGGGCAACAUUCCGAGGGGAGCGUCCCCUCGGUAAUGGCGAAUGGGACCCA, the self-cleavage is 0.358.

With GGCCGGCAUGCUCCCAGCCUCCUCGCUGGCGCCGGCUGGGCAACAUUCCGAGGGGACCGUCCCCUCGAUAAUGGCGAAUGGGACCCA, the self-cleavage stood at 0.295.

Turning to GGCCGGCAUGUUCCCAGCUUCCUCGCUGGCGCCGGCUGGGCAACAUUCCGAGGGGACCGUCCCCUCGGUAAUGGCGAAUGGGACCCA, the self-cleavage amounted to 0.0489.

Turning to GGCCGGCAUGUUCCCAGCCUCCUCGCUGGCGCCGGCUGGGUAACAUUCCGAGGGGACCGUCCCCUCGGUAAUGGCGAAUGGGACCCA, the self-cleavage stood at 0.358.

Regarding GGCCGGCAUGUUCCCAGCCUCCUCGCUGGCGCCGGCUGGGAAACAUUCCGAGGGGACCGUCCCCUCGGUAAUGGCGAAUGGGACCCA, the self-cleavage was 0.201.

As for GGCCGGCAUGCUCCCAGCCUCCUCGCUGGCGCCGGCUGGGCAACAUUCCGAGGGGACCGUCCCCUCGGCAAUGGCGAAUGGGACCCA, the self-cleavage worked out at 0.317.

In the case of GGCCGGCAUGCUCCCAGCCUCCUCGCUGGCGCCGGCUGGGCAACAUUCCGAGGGGACCGUCCCCUCGGGAAUGGCGAAUGGGACCCA, the self-cleavage was determined as 0.516.

For GGCCGGCAUGCUCCCAGCCUCCUCGCUGGCGCCGGCUGGGCAACAUUCCGAGGGGACCGUCCCCUCGGUAAUAGCGAAUGGGACCCA, the self-cleavage was determined as 0.0936.

GGCCGGCAUGCUCCCAGCCUCCUCGCUGGCGCCGGCUGGGCAACAUUCCGAGGGGACCGUCCCCUCGGUAAUUGCGAAUGGGACCCA: the self-cleavage was found to be 0.16.

As to GGCCGGCAUGUUCCCAGCCUCCUCGCUGGCGCCGGCUAGGCAACAUUCCGAGGGGACCGUCCCCUCGGUAAUGGCGAAUGGGACCCA, the self-cleavage was determined as 0.0135.

As for GGCCGGCAUGCUCCCAGCCUCCGCGCUGGCGCCGGCUGGGCAACAUUCCGAGGGGACCGUCCCCUCGGUAAUGGCGAAUGGGACCCA, the self-cleavage was found to be 0.0652.

GGCCGGCAUGUUCCCAGCCUCCUCGCUGGCGCCGGCUGGGCAACAUUCCGAGGGGCCCGUCCCCUCGGUAAUGGCGAAUGGGACCCA: the self-cleavage was 0.332.

As for GGCCGGCAUGCUCCCAGCCUCCUCGCUGGCGCCGGCUAGGCAACAUUCCGAGGGGACCGUCCCCUCGGUAAUGGCGAAUGGGACCCA, the self-cleavage came to 0.0519.

Consider GGCCGGCAUGUUCCCAGCCUCCUCGCUGGCGCCGGCUGGGCAACAUUCCGAGGGGACCGUCCCCUCGGUAAUGGCUAAUGGGACCCA, for which the self-cleavage came out at 0.596.

Consider GGCCGGCAUGUUCCCAGCCUUCUCGCUGGCGCCGGCUGGGCAACAUUCCGAGGGGACCGUCCCCUCGGUAAUGGCGAAUGGGACCCA, for which the self-cleavage came to 0.0923.

Regarding GGCCGGCAUGUUCCCAGCCUCCUCGCUUGCGCCGGCUGGGCAACAUUCCGAGGGGACCGUCCCCUCGGUAAUGGCGAAUGGGACCCA, the self-cleavage was 0.0396.

Turning to GGCCGGCAUGUUCCCAGCCUCCUCGCUAGCGCCGGCUGGGCAACAUUCCGAGGGGACCGUCCCCUCGGUAAUGGCGAAUGGGACCCA, the self-cleavage is 0.0219.

With GGCCGGCAUGUUCCCAGCCUCCUCGCUGGCGCCGGCUGGGCAACAUUCCCAGGGGACCGUCCCCUCGGUAAUGGCGAAUGGGACCCA, the self-cleavage turned out to be 0.359.

Turning to GGCCGGCAUGCUCCCAGCCUCCUCGCUGGCGCCGGCUGGGCAACAUUCCGAGGGGACCGUCCCCUCUGUAAUGGCGAAUGGGACCCA, the self-cleavage was determined as 0.323.

In the case of GGCCGGCAUGCUCCCAGCCUCCUCGCUGGCGCCGGCUGGGCAACAUUCCGAGGGGACCGUCCCCUCAGUAAUGGCGAAUGGGACCCA, the self-cleavage is 0.248.

In the case of GGCCGGCAUGCUCCCAGCCUCCUCGCUGGCGCCGGCUGGGCAACAUUCCGAGGGGACCGUCCCCUCCGUAAUGGCGAAUGGGACCCA, the self-cleavage worked out at 0.115.

Consider GGCCGGCAUGUUCCCAGCCUCCUCGCUGGCGCAGGCUGGGCAACAUUCCGAGGGGACCGUCCCCUCGGUAAUGGCGAAUGGGACCCA, for which the self-cleavage is 0.0604.

For GGCCGGCAUGUUCCCAGCCUCCUCGCUGGCGCCAGCUGGGCAACAUUCCGAGGGGACCGUCCCCUCGGUAAUGGCGAAUGGGACCCA, the self-cleavage worked out at 0.21.

For GGCCGGCAUGUUCCCAGCCUCCUCGCUGGCGCCCGCUGGGCAACAUUCCGAGGGGACCGUCCCCUCGGUAAUGGCGAAUGGGACCCA, the self-cleavage is 0.166.

Take GGCCGGCAUGUUCCCAGCCUCCUCGCUGGCGCCGUCUGGGCAACAUUCCGAGGGGACCGUCCCCUCGGUAAUGGCGAAUGGGACCCA: the self-cleavage came to 0.115.

With GGCCGGCAUGUUCCCAGCCUCCUCGCUGGCGCCGGCUGGGCAACAUUCCGAGGGGACCGUCCCCUCGGUAAUGGCGAAUGGGACCUA, the self-cleavage amounted to 0.415.

With GGCCGGCAUGUUCCCAGCCUCCUCGCUGGCGCCGGCUGGGCAACAUUCCGAGGGGACCGUCCCCUCGGUAAUGGCGAAUGGGACCAA, the self-cleavage came to 0.489.

Consider GGCCGGCAUGUUCCCAGCCUCCUCGCUGGCGCCGGCUGGGCAACAUUCCGAGGGGACCGUCCCCUCGGUAAUGGCGAAUGGGACCGA, for which the self-cleavage was determined as 0.199.

With GGCCGGCAUGUUCCCAGCCUCCUCGCUGGGGCCGGCUGGGCAACAUUCCGAGGGGACCGUCCCCUCGGUAAUGGCGAAUGGGACCCA, the self-cleavage is 0.0767.

As for GGCCGGCAUGUUCCCAGCCUCCUCGCUGGCACCGGCUGGGCAACAUUCCGAGGGGACCGUCCCCUCGGUAAUGGCGAAUGGGACCCA, the self-cleavage was 0.179.

Consider GGCCGGCAUGUUCCCAGCCUCCUCGCUGGCUCCGGCUGGGCAACAUUCCGAGGGGACCGUCCCCUCGGUAAUGGCGAAUGGGACCCA, for which the self-cleavage came out at 0.129.

Consider GGCCGGCAUGUUCCCAGCCUCCUCGCUGGCGCCGGCUGGCCAACAUUCCGAGGGGACCGUCCCCUCGGUAAUGGCGAAUGGGACCCA, for which the self-cleavage is 0.0181.

GGCCGGCAUGUUCCCAGCCUCCUCGCUGGCGCCGGCUGGUCAACAUUCCGAGGGGACCGUCCCCUCGGUAAUGGCGAAUGGGACCCA: the self-cleavage was 0.18.

With GGCCGGCAUGUUCCCAGCCUCCUCGCUGGCGCCGGCUGGGCAACAUUCCGAGGGGACCGUCCCCUCGGUAAUGGUGAAUGGGACCCA, the self-cleavage was 0.0422.

GGCCGGCAUGUUCCCAGCCUCCUCGCUGGCGCCGGCUGGGCAACAUUCCGAGGGGACCGUCCCCUCGGUAAUGGCGAAUGGGAGCCA: the self-cleavage was determined as 0.489.

As for GGCCGGCAUGUUCCCAGCCUCCUCGCUGGCGCCGGCUGCGCAACAUUCCGAGGGGACCGUCCCCUCGGUAAUGGCGAAUGGGACCCA, the self-cleavage came to 0.

With GGCCGGCAUGUUCCCAGCCUCCUCGCUGGCGCCGGCUGGGCAACAUUCCGAGGGGACCGUCCCCUCGGUAAUGGCGAAUGGGACCCG, the self-cleavage was 0.404.

For GGCCGGCAUGUUCCCAGCCUCCUCGCUGGCGCCGGCUGGGCAACAUUCCGAGGGGACCGUCCCCUCGGUACUGGCGAAUGGGACCCA, the self-cleavage was determined as 0.405.

In the case of GGCCGGCAUGCUCCCAGCCUCCUCGCUGGCGCCGGCUGGGCAACAUUCCGAGGGGACCGUCCCCCCGGUAAUGGCGAAUGGGACCCA, the self-cleavage was found to be 0.297.

For GGCCGGCAUGUUCCCAGCCUCCUCGUUGGCGCCGGCUGGGCAACAUUCCGAGGGGACCGUCCCCUCGGUAAUGGCGAAUGGGACCCA, the self-cleavage is 0.847.

On to GGCCGGCAUGUUCCCAGCCUCCUCGCUGGCGCCGGCUGGGCAACAUUCCGAGGGGACCGUCCCCUCAGUAAUGGCGAAUGGGACCCA, for which the self-cleavage came to 0.0875.

Consider GGCCGGCAUGUUCCCAGCCUCCUCGCUGGCGCCGGCUGGGCAACAUUACGAGGGGACCGUCCCCUCGGUAAUGGCGAAUGGGACCCA, for which the self-cleavage amounted to 0.423.

With GGCCGGCAUGUUCCCAGCCUCCUCGCUGGCGCCGGCUGGGCAACAUUCCGAGGGGACCGUCCCGUCGGUAAUGGCGAAUGGGACCCA, the self-cleavage was found to be 0.465.

Consider GGCCGGCAUGCUCCCAGCCUCCUCGCUGGCGCCGGCUGGGCAACAUUCCGAGAGGACCGUCCCCUCGGUAAUGGCGAAUGGGACCCA, for which the self-cleavage came to 0.344.

Take GGCCGGCAUGCUCCCAGCCUCCUCGCUGGCGCCGGCUGGGCAACAUUCCGAGCGGACCGUCCCCUCGGUAAUGGCGAAUGGGACCCA: the self-cleavage was found to be 0.291.

GGCCGGCAUGCUCCCAGCCUCCUCGCUGGCGCCGGCUGGGCAACAUUCCGAGUGGACCGUCCCCUCGGUAAUGGCGAAUGGGACCCA: the self-cleavage came to 0.415.

Consider GGCCGGCAUGUUCCCAGCCUCCUCGCUGGCGCCGGCUGGGCAACAUUCCGAGGGGACCGUCCCCUCGGUAAUCGCGAAUGGGACCCA, for which the self-cleavage amounted to 0.126.

GGCCGGCAUGUUCCCAGCCUCCUCGCUGGCGCCGGCUGGGCAACAUUCCGAGGGGACCGUCCCCUCGGUAAUAGCGAAUGGGACCCA: the self-cleavage stood at 0.138.

With GGCCGGCAUGUUCCCAGCCUCCUCGCUGGCGCCGGCUGGGCAACUUUCCGAGGGGACCGUCCCCUCGGUAAUGGCGAAUGGGACCCA, the self-cleavage was found to be 0.217.
